In assay [1] the test system is cyno-Axl (Axl receptor from cynomolgus monkey). Description: Biacore binding analysis on immobilized cyno-Axl. The arrangement: species or system Macaca fascicularis. To be noted: 10 μg/mL, 25° C. Here is the method: The sequence of Axl receptor from cynomolgus monkey (Macaca fascicularis; SEQ ID NO.43) was retrieved from WO2009062690A1. Based on the sequence, recombinant extracellular domain of cyno-Axl was generated by transient expression in CHO cells as a fusion protein with human Fc. The recombinant cyno-Axl-Fc was purified to homogeneity using Protein A-Sepharose (GE Healthcare). The binding experiments were performed using Biacore 3000 instrument (GE Healthcare) at 25° C. The soluble recombinant antigens corresponding to human Axl (rhAxl-Fc chimera; R&D Systems, Cat. no. 154-AL) and cyno-Axl were immobilized on the surface of CM5 sensor chip using amine coupling at the surface density of 775 and 880 RU, respectively. The Biacore runs were performed in an automatic mode using Binding analysis wizard.
cyno-Axl (Axl receptor from cynomolgus monkey), sequence (as listed by the source): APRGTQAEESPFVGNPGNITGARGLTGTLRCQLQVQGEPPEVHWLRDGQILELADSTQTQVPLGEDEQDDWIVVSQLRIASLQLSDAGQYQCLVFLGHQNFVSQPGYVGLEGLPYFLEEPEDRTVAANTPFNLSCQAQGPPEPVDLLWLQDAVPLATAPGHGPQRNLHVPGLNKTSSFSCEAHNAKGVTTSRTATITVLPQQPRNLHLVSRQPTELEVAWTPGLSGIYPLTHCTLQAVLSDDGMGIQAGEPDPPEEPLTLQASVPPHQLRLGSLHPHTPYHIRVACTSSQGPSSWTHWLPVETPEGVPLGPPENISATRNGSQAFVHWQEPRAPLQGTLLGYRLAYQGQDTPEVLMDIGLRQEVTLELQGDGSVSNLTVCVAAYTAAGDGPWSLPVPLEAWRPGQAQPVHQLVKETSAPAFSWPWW
The sample containing either MAb 10C9, MAb 10G5 or human Axl-specific MAb 5F11 (control) at concentration 10 μg/mL in HBS-EP buffer (GE Healthcare) was injected over the surfaces with immobilized antigens at flow rate of 30 μL/min for 3 min (association) followed by 5 min dissociation.

Assay [2] deals with Axl^+ cells. Nature of the assay: Flow cytometry binding of hybridoma antibody clones to Axl+ cells. The class given is cell-based. To be noted: hybridoma clone selection. Here is the method:
For flow cytometry, the adherent cells in culture were washed with PBS, detached by trypsin (0.25%) treatment for 1 min and hitting culture dish for full detachment. Trypsin was quenched by adding into the tissue flask the complete medium followed by washing the cells with PBS. During the washing steps, the cells were collected by centrifugation at 200 g for 5 min. The antibody was diluted for total concentration in PBS containing 0.02% bovine serum albumin (BSA).
Cell staining was performed using 200 μL of cell suspension comprising 10^5 cells for 20 min at room temperature. After two washing steps with PBS/0.02% BSA, the cells were resuspended in 200 μL incubated with an APC-conjugated donkey anti-mouse IgG (H+L) secondary antibody (Jackson Laboratories, Cat. no. 715-136-150) at concentration 2 μg/mL for 20 min at room temperature. The stained cells were washed twice with PBS/0.02% BSA and kept on ice before analysis using a BD LSR Fortessa cell analyzer (BD Biosciences).
On the technique in general: A flow cytometer gives signals particle by particle.

For assay [3], the system named is Axl-positive breast cancer cell line MDA-MB-231. Description: Flow cytometry binding to Axl-positive MDA-MB-231 cells. In kind it is cell-based, human. To be noted: different antibody concentrations, MFI. Here is the method:
Different concentrations of mouse and chimeric antibodies were tested in flow cytometry for binding to triple-negative breast cancer cell line MDA-MB-231. The bound mouse and chimeric antibodies were detected with APC-conjugated donkey F(ab′)2 fragments specific for either mouse IgG (H+L), 1:500 dilution, or human IgG (H+L), 1:300 dilution, respectively (both from Jackson ImmunoResearch). The cell staining was measured using Accuri C6 flow cytometer (BD Biosciences). MFI, geometric mean fluorescence intensity.
The purified chimeric antibodies (>95% purity) were analysed for binding to Axl-positive breast cancer cell line MDA-MB-231 in flow cytometry. For comparison, the parental mouse MAbs 10C9 and 10G5 were used. For flow cytometry, the adherent cells in culture were washed with PBS, detached by treatment with trypsin (0.25%) for 1 min and hitting culture dish for full detachment. Trypsin was quenched by adding into the tissue flask the complete medium followed by washing the cells with PBS. During the washing steps, the cells were collected by centrifugation at 200 g for 5 min. The antibody was diluted for total concentration in PBS containing 0.02% bovine serum albumin (BSA). Cell staining was performed using 200 μL of cell suspension comprising 10^5 cells for 20 min at room temperature. The cell-bound antibodies were detected with APC-conjugated donkey anti-human or anti-mouse, respectively, IgG (H+L) F(ab′)2 fragments (Jackson ImmunoResearch). After two washing steps with PBS/0.02% BSA, the cells were resuspended in 200 μL and kept on ice before analysis on Accuri C6 flow cytometer (BD Biosciences).

Assay [4] deals with T1, Mer (rhMer-Fc chimera) (Homo sapiens, UniProt Q12866).
T1 construct: Soluble recombinant antigens corresponding to the extracellular domains of members of the human TAM receptor family; purchased R&D Systems 891-MR
T1 sequence (Q12866 21-505 limits assumed): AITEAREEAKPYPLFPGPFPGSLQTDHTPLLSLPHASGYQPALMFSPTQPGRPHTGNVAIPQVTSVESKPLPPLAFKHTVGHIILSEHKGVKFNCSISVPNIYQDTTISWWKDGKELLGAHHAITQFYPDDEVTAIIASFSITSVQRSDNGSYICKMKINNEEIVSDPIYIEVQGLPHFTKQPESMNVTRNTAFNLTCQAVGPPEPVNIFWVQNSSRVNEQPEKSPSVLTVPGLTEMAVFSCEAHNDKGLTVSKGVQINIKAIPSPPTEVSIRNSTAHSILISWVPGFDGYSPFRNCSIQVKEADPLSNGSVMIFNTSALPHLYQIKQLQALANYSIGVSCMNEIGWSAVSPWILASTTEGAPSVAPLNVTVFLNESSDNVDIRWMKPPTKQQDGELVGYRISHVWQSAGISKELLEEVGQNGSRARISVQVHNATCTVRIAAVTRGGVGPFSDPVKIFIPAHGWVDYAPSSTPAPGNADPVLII
Nature of the assay: Biacore binding analysis on immobilized human Mer. To be noted: 10 μg/mL, 25° C. As to the method:
All binding experiments were performed using Biacore 3000 instrument (GE Healthcare) at 25° C. Soluble recombinant antigens corresponding to the extracellular domains of members of the human TAM receptor family, Axl (rhAxl-Fc chimera; R&D Systems, Cat. no. 154-AL), Mer (rhMer-Fc chimera; R&D Systems, Cat. no. 891-MR) and Tyro3 (rhTyro3/Dtk-Fc chimera; R&D Systems, Cat. no. 859-DK) were immobilized on the surface of CM5 sensor chip using amine coupling at the surface density of 393.0, 303.6 and 364.0 resonance units (RU), respectively. The Biacore run was performed in an automatic mode using Binding analysis wizard. Samples containing either MAb 10C9 or MAb 10G5 at concentration 10 μg/mL in HBS-EP buffer (GE Healthcare) were injected over the surfaces with immobilized antigens at flow rate of 30 μL/min for 3 min (association) followed by 5 min dissociation.
In general terms: SPR reads the build-up and loss of mass on a sensor chip optically.

The subject of assay [5] is MDA-MB-231 cells. Description: Treatment of established stellate-shaped 3D tumour masses. In kind it is cell-based, human. To be noted: MDA-MB-231, 72 hours, versus control IgG. As to the method: Effect of anti-Axl antibodies 10C9 and 10G5 on established 3D organotypic tumour masses. The developed 9-days old stellate-shaped 3D organoid masses of human mammary carcinoma cells (MDA-MB-231) were treated with either control IgG or anti-Axl antibodies 10C9 and 10G5 for 72 hours. Images were captured using bright field; arrows indicate apoptotic, degrading stellate-shaped cells.
MDA-MB-231 cells were grown on extracellular matrix and allowed to form the highly aggressive stellate shaped morphology. Stellate-shaped tumour masses were then treated with the control IgG and antibodies 10C9 and 10G5, as described in EXAMPLE 7.

This is an account of results in patent publication US10208121B2, “Anti-Axl antagonistic antibodies” (BERGEN TEKNOLOGIOVERFORING AS, priority 2014, dated 2019).

Entries after “also recorded” stand apart in the source; their conditions may differ.

B1: 10C9: mouse anti-Axl monoclonal antibody from hybridoma UT-10C9-B9, IgG2b; VH SEQ ID NO: 3, VL SEQ ID NO: 4 (antibody, listed as Mus musculus, V domains shown)
VH: QVQLQQPGPELVKPGASVKISCKTSDYNFTRYYIHWVKQRPGQGLEWIGWIYPGTGDSKYNEKFKGRATLTADTSSSTAYMQLSSQTSEDSAVYFCARNGNYWYFDVWGAGTAVTVSS
VL: DIVMTQAAPSGPVTPGESVSISCRSSKSLLHSNGNTYLYWFLQRPGQSPQLLIYRMSNLASGVPDRFSGSGSGTAFTLRISRVEAEDVGIYYCMQHREYPFTFGGGTKLEIK
In the case of B1, the “binding to Axl from cynomolgus monkey” value in assay [1] was “strong and specific interaction”; in assay [1] (listed as 1009), “bind strongly”. Besides, the “binding to Axl^+ cells in flow cytometry” value in assay [2] is reported as “specific binding”. In addition, the “binding to MDA-MB-231 cells in flow cytometry” value in assay [3] was “Dose-dependent binding”. Besides, the entries for the “binding to human Mer” value in assay [4] and in assay [4] (listed as 1009) were “no binding” and “no significant binding”, respectively. Further, in assay [5], the “effect on established stellate-shaped 3D tumour masses” value is on record as “degradation of stellate patterns”.

B2: 10G5: mouse anti-Axl monoclonal antibody from hybridoma WR-10G5-E5, IgG1; VH SEQ ID NO: 21, VL SEQ ID NO: 22 (antibody, listed as Mus musculus, V domains shown)
VH: QVQLQQSGAELVRPGASVKLSCKASGYSFTDFYINWVRQRPGQGLEWIARIFPGGDNTYYNEKFKGKATLTAEESSSTAYIQLSSLTSEDSAVYFCARRGLYYAMDYWGQGISVTVSS
VL: DVLMTQTPLSLPVSLGDQASISCRSSQSLVHSNGIPYLHWYLQKPGQSPKLLIYRVSNRFSGVPDRFSGSGSGTDFTLKISRVEAEDLGVYFCSQGTHVPPTFGGGTKLEIK
As to B2, the “binding to Axl from cynomolgus monkey” value in assay [1] was “bind strongly; also recorded: strong and specific interaction”. In assay [2], the “binding to Axl^+ cells in flow cytometry” value was “specific binding”. The “binding to human Mer” value in assay [4] is given as “no significant binding”. For the same molecule, the “effect on established stellate-shaped 3D tumour masses” value in assay [5] was “degradation of stellate patterns”.

B3: c10G5: chimeric (mouse variable/human constant) IgG1 variant of antibody 10G5 (antibody)
heavy: QVQLQQSGAELVRPGASVKLSCKASGYSFTDFYINWVRQRPGQGLEWIARIFPGGDNTYYNEKFKGKATLTAEESSSTAYIQLSSLTSEDSAVYFCARRGLYYAMDYWGQGISVTVSS
light: DVLMTQTPLSLPVSLGDQASISCRSSQSLVHSNGIPYLHWYLQKPGQSPKLLIYRVSNRFSGVPDRFSGSGSGTDFTLKISRVEAEDLGVYFCSQGTHVPPTFGGGTKLEIK
modifications: left off: a dimerising Fc or GST
notes: chimeric (mouse variable/human constant) IgG1 variant of antibody 10G5
For B3, in assay [3], the “binding to MDA-MB-231 cells in flow cytometry” value is reported as “Dose-dependent binding”.
